{"source": "paper PMC12098241", "key": {"[1]": {"target": "SIRPα-αMSLN^M4F5 local inhibitory checkpoint monoclonal antibody (LicMAb)", "test": "flow cytometry on cells; binding to SUIT-2-MSLN cells in the presence of 2.5 µM rhMSLN as competitor (Supplementary Figure S6b, c)"}, "[2]": {"target": "SIRPα-αMSLN^M4F5 local inhibitory checkpoint monoclonal antibody (LicMAb)", "test": "flow cytometry on cells; binding to SUIT-2-MSLN cells in the presence of saturating concentrations of soluble MSLN (Supplementary Figure S7a)"}}}
{"substance": "recombinant human MSLN (rhMSLN) (from UniProt Q13421 37-598) (natural protein)", "values": [{"measurement": "percent reduction of the binding of m2 to SUIT-2-MSLN cells by 2.5 µM rhMSLN", "setting": "[1]", "value": 40, "unit": "%"}, {"measurement": "percent reduction of the binding of m2 to SUIT-2-MSLN cells by saturating soluble MSLN", "setting": "[2]", "value": 53, "unit": "%"}]}
